In article PMC13328618, “Heritable immunization of mice against Lyme disease enables ecological disease prevention” (Nature Communications, 2026):

What was measured:
[1] = biological target: recombinant outer surface protein A (rOspA) of Borrelia burgdorferi (Borrelia burgdorferi) (UniProt P0CL66)
[2] = biological target: T1, biotinylated OspA protein (Borrelia burgdorferi, UniProt P0CL66, biotin (site not stated)); assay: BLI; Octet Red96; biotinylated OspA immobilised on streptavidin biosensors; antibody 3.7-300 nM, 180 s association, 600 s dissociation in PBST with 0.1% bovine serum albumin; global fitting; conditions: both partners purified
T1 construct: outer surface protein A (OspA), Borrelia burgdorferi; biotinylated for capture on streptavidin biosensors; May be the GenScript rOspA after biotinylation; also called biotinylated OspA proteins

[3] = biological target: T2, recombinant outer surface protein A (rOspA) of Borrelia burgdorferi (Borrelia burgdorferi, UniProt P0CL66); assay: ELISA; plates coated with rOspA at 5 µg/mL; mouse serum applied; detection with IgG ELISA detection kit; purified LA-2 IgG2a as standard; conditions: one partner purified
T2 construct: outer surface protein A (OspA), Borrelia burgdorferi; recombinant; source: produced by GenScript

[4] = biological target: T2, recombinant outer surface protein A …; assay: ELISA; plates coated with 5 µg/mL rOspA; supernatants of transfected Lenti-X 293T cells 72 h after transfection; detection with mouse IgG2b ELISA kit; conditions: one partner purified

T1 sequence (P0CL66 17-273): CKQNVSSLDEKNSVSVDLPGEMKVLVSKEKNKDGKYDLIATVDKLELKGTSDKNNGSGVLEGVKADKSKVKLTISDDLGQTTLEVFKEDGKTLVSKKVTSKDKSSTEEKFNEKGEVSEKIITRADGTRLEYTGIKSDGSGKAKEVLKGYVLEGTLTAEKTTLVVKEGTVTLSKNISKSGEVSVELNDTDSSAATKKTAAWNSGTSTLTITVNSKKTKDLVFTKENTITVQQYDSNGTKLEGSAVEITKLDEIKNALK
T2 sequence (P0CL66 17-273): as above
recombinant outer surface protein A (rOspA) of Borrelia burgdorferi (Borrelia burgdorferi), sequence (P0CL66 17-273): as above

Work on “LA-2 scFv-albumin fusion protein expressed in Rosa26-targeted mice” yielded a xenodiagnosis: engineered (heterozygous) mice free of infection, by spirochetes in larval ticks fed 21 days after challenge with 10 B. burgdorferi-infected nymphs [1] of 80%.

B1: full-length LA-2 IgG2a (antibody, V domains shown)
VH: QIQLVQSGPELKKPGETVKISCKASGYTFTDYSMYWVKQAPGKGLKRMGWINTETGEPTYADDFKGRFALSLDTSASTAYLHISNLKNEDTATYFCARGLDSWGQGTSVTVSS
VL: DIQMTQSPSSLSATLGGKVTITCKASQDINKYIAWYQHKPGKGPRLLIHYTSTLQPGNPSRFSGSGSGRDYSFSISNLEAEDIAIYYCLQYDNLQRTFGGGTKVEIK
notes: LA-2 heavy-chain variable region; mouse IgG2a heavy-chain constant region; LA-2 light-chain variable region; light-chain constant region; IgG2a; plasmid constructed by GenScript; source: Expi293F, transfected, purified (Protein A-Sepharose 4B)
B1: binds [2].

B2: LA-2 scFv-Fc with Vh-(G4S)3-Vl linker (Fc fusion)
VH: QIQLVQSGPELKKPGETVKISCKASGYTFTDYSMYWVKQAPGKGLKRMGWINTETGEPTYADDFKGRFALSLDTSASTAYLHISNLKNEDTATYFCARGLDSWGQGTSVTVSS
VL: DIQMTQSPSSLSATLGGKVTITCKASQDINKYIAWYQHKPGKGPRLLIHYTSTLQPGNPSRFSGSGSGRDYSFSISNLEAEDIAIYYCLQYDNLQRTFGGGTKVEIK
notes: LA-2 heavy-chain variable region, as the VH of m3; flexible (G4S)3 linker, printed as (G4S)3; LA-2 light-chain variable region, as the VL of m3; Cloned into a modified pcDNA3.4 vector; also called scFv with a Vh-(G4S)3-Vl linker; source: Expi293F, transfected, purified (Protein A-Sepharose 4B)
B2: binds [2].

B3: full-length LA-2 monoclonal antibody expressed in liver-specific knock-in mice (antibody, V domains shown)
VH: QIQLVQSGPELKKPGETVKISCKASGYTFTDYSMYWVKQAPGKGLKRMGWINTETGEPTYADDFKGRFALSLDTSASTAYLHISNLKNEDTATYFCARGLDSWGQGTSVTVSS
VL: DIQMTQSPSSLSATLGGKVTITCKASQDINKYIAWYQHKPGKGPRLLIHYTSTLQPGNPSRFSGSGSGRDYSFSISNLEAEDIAIYYCLQYDNLQRTFGGGTKVEIK
notes: LA-2 heavy-chain variable region, as the VH of m3; mouse IgG2a heavy-chain constant region; LA-2 light-chain variable region, as the VL of m3; light-chain constant region; Heavy and light chains are made from one transcript with a T2A element between them; residues of T2A may remain on the chains; also called LA-2 antibodies; source: transgenic Mus musculus (knock-in proximal to the albumin …)
B3: binds [3].

B4: LA-2 scFv-Fc with the top-performing linker … (Fc fusion)
VH: QIQLVQSGPELKKPGETVKISCKASGYTFTDYSMYWVKQAPGKGLKRMGWINTETGEPTYADDFKGRFALSLDTSASTAYLHISNLKNEDTATYFCARGLDSWGQGTSVTVSS
VL: DIQMTQSPSSLSATLGGKVTITCKASQDINKYIAWYQHKPGKGPRLLIHYTSTLQPGNPSRFSGSGSGRDYSFSISNLEAEDIAIYYCLQYDNLQRTFGGGTKVEIK
notes: LA-2 heavy-chain variable region, as the VH of m3; linker between the heavy and light variable regions; LA-2 light-chain variable region, as the VL of m3; source: Lenti-X 293T, transfected (PEI), in supernatant
B4: binds [4].
